One assay concerns the target T1, CEACAM5 on MKN-45 cells (UniProt P06731 35-702, limits assumed).
T1 sequence (looked up): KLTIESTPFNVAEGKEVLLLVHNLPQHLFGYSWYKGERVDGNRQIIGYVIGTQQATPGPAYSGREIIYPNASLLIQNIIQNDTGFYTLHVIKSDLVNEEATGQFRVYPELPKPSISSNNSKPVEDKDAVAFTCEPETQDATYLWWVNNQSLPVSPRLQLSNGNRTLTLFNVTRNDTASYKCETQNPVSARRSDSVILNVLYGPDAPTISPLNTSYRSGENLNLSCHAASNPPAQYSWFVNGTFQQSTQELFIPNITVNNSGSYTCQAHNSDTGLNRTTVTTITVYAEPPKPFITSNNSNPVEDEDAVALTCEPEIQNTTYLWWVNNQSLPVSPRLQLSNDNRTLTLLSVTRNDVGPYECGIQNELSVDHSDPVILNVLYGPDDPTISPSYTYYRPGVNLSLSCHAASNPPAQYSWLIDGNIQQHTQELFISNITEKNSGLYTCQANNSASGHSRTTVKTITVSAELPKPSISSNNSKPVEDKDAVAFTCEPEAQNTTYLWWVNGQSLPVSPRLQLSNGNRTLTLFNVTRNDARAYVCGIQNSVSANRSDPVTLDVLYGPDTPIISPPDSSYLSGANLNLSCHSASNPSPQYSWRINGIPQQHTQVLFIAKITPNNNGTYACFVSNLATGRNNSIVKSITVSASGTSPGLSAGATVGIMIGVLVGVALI
The assay can be described thus: cell-based or functional assay.

The target in assay [1] is T2, human CEACAM6 (CD66c protein, His Tag, Sino Biological) (human, UniProt P40199 35-320).
T2 construct: Bought His-tagged protein captured on nickel NTA plates; also called hCEACAM6; hCD66c; not shown: His tag
T2 sequence (looked up): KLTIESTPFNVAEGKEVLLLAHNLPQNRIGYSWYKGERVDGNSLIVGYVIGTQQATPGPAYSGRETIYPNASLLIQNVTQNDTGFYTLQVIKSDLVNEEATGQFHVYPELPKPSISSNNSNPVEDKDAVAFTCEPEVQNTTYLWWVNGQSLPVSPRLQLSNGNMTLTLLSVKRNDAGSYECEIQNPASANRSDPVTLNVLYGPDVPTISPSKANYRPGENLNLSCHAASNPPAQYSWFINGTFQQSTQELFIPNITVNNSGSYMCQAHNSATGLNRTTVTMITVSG
The assay can be described thus: ELISA, His-tagged antigen on nickel NTA plate, anti-human IgG-HRP detection. As to the method: (§1) Nickel NTA plates (Pierce™ Nickel coated plated, ThermoScientific™) were washed three times prior to use. Human CEACAM5 (CD66e protein, His Tag, Sino Biological), human CEACAM6 (CD66c protein, His Tag, Sino Biological) and cynomolgus CEACAM5 (CD66e protein, His Tag, Sino Biological) were dissolved at a concentration of 0.05 μg/mL in 0.1% BSA in PBS (PBA). 100 μL was added to each well and incubated while shaking for 1 hour at room temperature. After removal, the plate was washed 3× with 0.05% Tween-20 in PBS (washing buffer). ADCs were diluted in 0.1% PBA to a final concentration of 8 μg/mL and 100 μL was added to each well (in triplo). ADCs were incubated for 1 h at room temperature. Prior to the addition of 100 μL 1:100 dilution of secondary antibody (Goat anti-human IgG, HRP conjugate, Invitrogen) the plate was washed 3× with washing buffer. The plate was incubated again for 1 h at room temperature and subsequently washed 3× with washing buffer and 3× with PBS. Finally, 100 μL TMB ELISA substrate (1 Step™ Turbo TMB ELISA substrate, ThermoScientific™) was added and incubated for 1 minute. The absorbance of the colorimetric signal was measured with Infinite® M1000 (Tecan) at 605 nm. Data was plotted corrected for the background (see FIGS. 9).

In assay [2] the target is T3, Human CEACAM5 (CD66e protein, His Tag, Sino Biological) (human, UniProt P06731 35-685).
T3 construct: Bought His-tagged protein captured on nickel NTA plates; also called hCEACAM5; hCD66e; not shown: His tag
T3 sequence (looked up): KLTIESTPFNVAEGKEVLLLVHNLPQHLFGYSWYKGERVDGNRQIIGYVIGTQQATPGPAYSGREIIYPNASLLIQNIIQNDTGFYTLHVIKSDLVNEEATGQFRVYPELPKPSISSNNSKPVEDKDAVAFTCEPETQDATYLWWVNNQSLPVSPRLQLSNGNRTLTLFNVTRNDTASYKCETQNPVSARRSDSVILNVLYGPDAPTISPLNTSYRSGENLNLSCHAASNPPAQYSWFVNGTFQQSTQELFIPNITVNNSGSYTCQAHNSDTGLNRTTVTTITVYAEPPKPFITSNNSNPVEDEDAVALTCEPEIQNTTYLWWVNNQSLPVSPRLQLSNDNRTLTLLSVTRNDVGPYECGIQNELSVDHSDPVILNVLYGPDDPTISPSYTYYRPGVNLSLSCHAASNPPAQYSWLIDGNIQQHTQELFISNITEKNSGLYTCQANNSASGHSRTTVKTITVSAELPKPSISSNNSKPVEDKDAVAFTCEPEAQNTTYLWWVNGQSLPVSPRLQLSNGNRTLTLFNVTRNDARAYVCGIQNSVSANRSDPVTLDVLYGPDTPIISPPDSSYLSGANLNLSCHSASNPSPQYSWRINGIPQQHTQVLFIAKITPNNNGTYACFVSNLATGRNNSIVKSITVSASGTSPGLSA
The description is as above. As to the method: as §1

B1: tusamitamab-DM4 (antibody, human IgG1, kappa, V domains shown)
VH: EVQLQESGPGLVKPGGSLSLSCAASGFVFSSYDMSWVRQTPERGLEWVAYISSGGGITYAPSTVKGRFTVSRDNAKNTLYLQMNSLTSEDTAVYYCAAHYFGSSGPFAYWGQGTLVTVSS
VL: DIQMTQSPASLSASVDRVTITCRASENIFSYLAWYQQKPGKSPKLLVYNTRTLAEGVPSRFSGSGSGTDFSLTISSLQPEDFATYYCQHHYGTPFTFGSGTKLEIKR
modifications: SPDB-DM4 conjugated, sites not stated; average DAR 3.4
On to B1, for which, in the assay with CEACAM5 on MKN-45 cells, the “MKN-45, IC50” value came out at 2.6 nM.

B2: tusamitamab-6 (antibody, human IgG1, kappa, V domains shown)
VH: B1 VH
VL: B1 VL
modifications: heavy-chain glycan trimmed to core GlcNAc, 6-N3-GalNAc attached and reacted with BCN-HS-PEG2-HS-(vc-PABA-Ahx-May)2 6 (maytansinoid payload); average DAR 3.85
For the molecule B2, in the assay with CEACAM5 on MKN-45 cells, the “MKN-45, IC50” value was determined as 0.88 nM.

B3: tusamitamab (antibody, human IgG1, kappa, V domains shown)
VH: B1 VH
VL: B1 VL
notes: IgG transiently expressed in CHO K1 cells; also called tusamitamab (I); huMAb2-3
As to B3, the binding result in assay [1] is “no binding (tested: 8 µg/mL)”.

B4: tusamitamab-3 (antibody, human IgG1, kappa, V domains shown)
VH: B1 VH
VL: B1 VL
modifications: heavy-chain glycan trimmed to core GlcNAc, 6-N3-GalNAc attached and reacted with BCN-HS-PEG2-HS-(va-PAB-Ex)2 3 (exatecan payload); average DAR 3.89
B4: the “MKN-45, IC50” value with CEACAM5 on MKN-45 cells is 3.4 nM.

B5: labetuzumab-3 (antibody, human IgG1, kappa, V domains shown)
VH: EVQLVESGGGVVQPGRSLRLSCSASGFDFTTYWMSWVRQAPGKGLEWIGEIHPDSSTINYAPSLKDRFTISRDNAKNTLFLQMDSLRPEDTGVYFCASLYFGFPWFAYWGQGTPVTVSS
VL: DIQLTQSPSSLSASVGDRVTITCKASQDVGTSVAWYQQKPGKAPKLLIYWTSTRHTGVPSRFSGSGSGTDFTFTISSLQPEDIATYYCQQYSLYRSFGQGTKVEIKR
modifications: heavy-chain glycan trimmed to core GlcNAc, 6-N3-GalNAc attached and reacted with BCN-HS-PEG2-HS-(va-PAB-Ex)2 3 (exatecan payload); average DAR 3.90
As to B5, in the assay with CEACAM5 on MKN-45 cells, the “MKN-45, IC50” value was determined as 6.5 nM.

B6: labetuzumab (antibody, human IgG1, kappa, V domains shown)
VH: B5 VH
VL: B5 VL
notes: IgG transiently expressed in CHO K1 cells; also called labetuzumab (II); hMN-14
With B6, the binding result in assay [2] is listed as “binds”; in assay [1], “no binding (tested: 8 µg/mL)”.

B7: B12-3 (antibody, human IgG1, kappa, V domains shown)
VH: QVQLVQSGAEVKKPGASVKVSCQASGYRFSNFVIHWVRQAPGQRFEWMGWINPYNGNKEFSAKFQDRVTFTADTSANTAYMELRSLRSADTAVYYCARVGPYSWDDSPQDNYYMDVWGKGTTVIVSS
VL: EIVLTQSPGTLSLSPGERATFSCRSSHSIRSRRVAWYQHKPGQAPRLVIHGVSNRASGISDRFSGSGSGTDFTLTITRVEPEDFALYYCQVYGASSYTFGQGTKLERKR
modifications: heavy-chain glycan trimmed to core GlcNAc, 6-N3-GalNAc attached and reacted with BCN-HS-PEG2-HS-(va-PAB-Ex)2 3 (exatecan payload); average DAR 3.75
Consider B7, for which, in the assay with CEACAM5 on MKN-45 cells, the “MKN-45, IC50” value is more than 100 nM.

Source of the values: US20250082770A1 (SYNAFFIX B V, published 2025).
